# Results published in the supplement of paper PMC9112550, “Optimization of the antimicrobial peptide Bac7 by deep mutational scanning” (BMC Biology, 2022).
# System: Escherichia coli TOP10
# Assay: shrunken log2 fold change of peptide-encoding DNA abundance (4.5 h post-induction vs induction); higher = less antimicrobial activity (less host growth inhibition)
# Conditions: time post-induction: 4.5 h; library: site-saturation at positions 5, 18, 19, 20
# 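Note: peptides expressed intracellularly from a pBAD plasmid library in pooled LB shake-flask culture, induced with 0.3% L-arabinose, DNA abundance read by NGS, three biological replicates, DESeq2 with apeglm shrinkage.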
row,Sequence,shrunken log2 fold change
1,RRIRMRPPRLPRPRPRPWQHPRP,0.0948
2,RRIRMRPPRLPRPRPRPWRNPRP,-0.00207
3,RRIRMRPPRLPRPRPRPWSFPRP,-0.33
4,RRIRMRPPRLPRPRPRPWTVPRP,-0.248
5,RRIRMRPPRLPRPRPRPYAAPRP,0.364
6,RRIRMRPPRLPRPRPRPYCKPRP,-1.02
7,RRIRMRPPRLPRPRPRPYCWPRP,-0.134
8,RRIRMRPPRLPRPRPRPYCYPRP,-0.13
9,RRIRMRPPRLPRPRPRPYDFPRP,-0.00149
10,RRIRMRPPRLPRPRPRPYDHPRP,-0.141
11,RRIRMRPPRLPRPRPRPYDKPRP,-0.351
12,RRIRMRPPRLPRPRPRPYDPPRP,-0.328
13,RRIRMRPPRLPRPRPRPYFQPRP,-0.759
14,RRIRMRPPRLPRPRPRPYIGPRP,-0.00926
15,RRIRMRPPRLPRPRPRPYIKPRP,-0.86
16,RRIRMRPPRLPRPRPRPYIWPRP,-0.402
17,RRIRMRPPRLPRPRPRPYKAPRP,0.00361
18,RRIRMRPPRLPRPRPRPYLCPRP,-0.165
19,RRIRMRPPRLPRPRPRPYLKPRP,-0.00107
20,RRIRMRPPRLPRPRPRPYMKPRP,-0.0154
21,RRIRMRPPRLPRPRPRPYMMPRP,-0.111
22,RRIRMRPPRLPRPRPRPYNIPRP,-0.358

row,Sequence,shrunken log2 fold change
1,RRIRMRPPRLPRPRPRPYPKPRP,0.0427
2,RRIRMRPPRLPRPRPRPYQSPRP,-0.118
3,RRIRMRPPRLPRPRPRPYSNPRP,-0.834
4,RRIRMRPPRLPRPRPRPYSPPRP,-0.199
5,RRIRMRPPRLPRPRPRPYSVPRP,0.0409
6,RRIRMRPPRLPRPRPRPYTNPRP,-0.165
7,RRIRMRPPRLPRPRPRPYTPPRP,-0.847
8,RRIRMRPPRLPRPRPRPYVFPRP,-0.368
9,RRIRMRPPRLPRPRPRPYWEPRP,-0.0124
10,RRIRMRPPRLPRPRPRPYWKPRP,0.0275
11,RRIRMRPPRLPRPRPRPYWMPRP,-1.18
12,RRIRMRPPRLPRPRPRPYWQPRP,-0.312
13,RRIRMRPPRLPRPRPRPYYKPRP,-0.611
14,RRIRMRPPRLPRPRPRPYYNPRP,-0.709
15,RRIRNRPPRLPRPRPRPAAAPRP,0.43
16,RRIRNRPPRLPRPRPRPAAFPRP,-0.0633
17,RRIRNRPPRLPRPRPRPACMPRP,0.0165
18,RRIRNRPPRLPRPRPRPADKPRP,0.0545
19,RRIRNRPPRLPRPRPRPAECPRP,0.0508
20,RRIRNRPPRLPRPRPRPAEFPRP,0.0274
21,RRIRNRPPRLPRPRPRPAEKPRP,0.0519
22,RRIRNRPPRLPRPRPRPAEQPRP,-0.018

row,Sequence,shrunken log2 fold change
1,RRIRNRPPRLPRPRPRPAERPRP,-0.117
2,RRIRNRPPRLPRPRPRPAFDPRP,0.235
3,RRIRNRPPRLPRPRPRPAGKPRP,-0.0122
4,RRIRNRPPRLPRPRPRPAGLPRP,-0.118
5,RRIRNRPPRLPRPRPRPAHNPRP,-0.259
6,RRIRNRPPRLPRPRPRPAHTPRP,0.121
7,RRIRNRPPRLPRPRPRPAINPRP,0.0991
8,RRIRNRPPRLPRPRPRPAIRPRP,-0.0992
9,RRIRNRPPRLPRPRPRPAKTPRP,0.0732
10,RRIRNRPPRLPRPRPRPAKWPRP,0.112
11,RRIRNRPPRLPRPRPRPALLPRP,0.504
12,RRIRNRPPRLPRPRPRPAMIPRP,-0.254
13,RRIRNRPPRLPRPRPRPAMMPRP,0.0394
14,RRIRNRPPRLPRPRPRPAMVPRP,-0.0286
15,RRIRNRPPRLPRPRPRPANRPRP,-0.029
16,RRIRNRPPRLPRPRPRPAPYPRP,0.0296
17,RRIRNRPPRLPRPRPRPAQMPRP,0.177
18,RRIRNRPPRLPRPRPRPASQPRP,0.545
19,RRIRNRPPRLPRPRPRPATIPRP,-0.44
20,RRIRNRPPRLPRPRPRPATRPRP,0.322
21,RRIRNRPPRLPRPRPRPAWVPRP,0.147
22,RRIRNRPPRLPRPRPRPAYGPRP,0.118

row,Sequence,shrunken log2 fold change
1,RRIRNRPPRLPRPRPRPCATPRP,-0.0524
2,RRIRNRPPRLPRPRPRPCCEPRP,0.0852
3,RRIRNRPPRLPRPRPRPCCIPRP,-0.00191
4,RRIRNRPPRLPRPRPRPCCMPRP,-0.0549
5,RRIRNRPPRLPRPRPRPCDFPRP,-0.529
6,RRIRNRPPRLPRPRPRPCECPRP,0.0219
7,RRIRNRPPRLPRPRPRPCFCPRP,-0.337
8,RRIRNRPPRLPRPRPRPCGNPRP,-0.0905
9,RRIRNRPPRLPRPRPRPCHYPRP,0.00673
10,RRIRNRPPRLPRPRPRPCINPRP,-0.548
11,RRIRNRPPRLPRPRPRPCIQPRP,0.00396
12,RRIRNRPPRLPRPRPRPCKCPRP,0.00489
13,RRIRNRPPRLPRPRPRPCKDPRP,-0.00844
14,RRIRNRPPRLPRPRPRPCMKPRP,-0.507
15,RRIRNRPPRLPRPRPRPCPHPRP,-0.01
16,RRIRNRPPRLPRPRPRPCQVPRP,-0.106
17,RRIRNRPPRLPRPRPRPCRRPRP,-0.103
18,RRIRNRPPRLPRPRPRPCTLPRP,-0.191
19,RRIRNRPPRLPRPRPRPCTWPRP,0.0117
20,RRIRNRPPRLPRPRPRPCVAPRP,-0.23
21,RRIRNRPPRLPRPRPRPCVRPRP,-0.109
22,RRIRNRPPRLPRPRPRPCYCPRP,-0.00992

row,Sequence,shrunken log2 fold change
1,RRIRNRPPRLPRPRPRPDCVPRP,-0.106
2,RRIRNRPPRLPRPRPRPDDNPRP,-0.0156
3,RRIRNRPPRLPRPRPRPDEFPRP,-0.0168
4,RRIRNRPPRLPRPRPRPDEIPRP,-0.043
5,RRIRNRPPRLPRPRPRPDELPRP,-0.134
6,RRIRNRPPRLPRPRPRPDFVPRP,-0.045
7,RRIRNRPPRLPRPRPRPDGIPRP,0.0081
8,RRIRNRPPRLPRPRPRPDHSPRP,-0.22
9,RRIRNRPPRLPRPRPRPDKGPRP,0.00408
10,RRIRNRPPRLPRPRPRPDKQPRP,0.00349
11,RRIRNRPPRLPRPRPRPDKRPRP,-0.0491
12,RRIRNRPPRLPRPRPRPDMKPRP,-0.423
13,RRIRNRPPRLPRPRPRPDQRPRP,0.021
14,RRIRNRPPRLPRPRPRPDRSPRP,-0.043
15,RRIRNRPPRLPRPRPRPDRTPRP,-0.161
16,RRIRNRPPRLPRPRPRPDSIPRP,-0.307
17,RRIRNRPPRLPRPRPRPDSTPRP,-0.028
18,RRIRNRPPRLPRPRPRPDSVPRP,0.119
19,RRIRNRPPRLPRPRPRPDVHPRP,0.0115
20,RRIRNRPPRLPRPRPRPDVKPRP,-0.412
21,RRIRNRPPRLPRPRPRPDVPPRP,-0.199
